Results as given in article PMC4272287 (PLoS ONE, 2014).

B1: sdAb A3, anti-Staphylococcal Enterotoxin B single domain antibody (VHH)
VHH: EVQLVESGGGLVQAGDSLRLSCTASGRTFSRAVMGWFRQAPGKEREFVAAISAAPGTAYYAFYADSVRGRFSISADSAKNTVYLQMNSLKPEDTAVYYCAADLKMQVAAYMNQRSVDYWGQGTQVTVSS
notes: also called wild type sdAb A3
B2: sdAb A3 Construct 4 (Q3C Y118C) (VHH)
VHH: EVCLVESGGGLVQAGDSLRLSCTASGRTFSRAVMGWFRQAPGKEREFVAAISAAPGTAYYAFYADSVRGRFSISADSAKNTVYLQMNSLKPEDTAVYYCAADLKMQVAAYMNQRSVDCWGQGTQVTVSS
notes: Keeps C22/C99
B3: sdAb A3 Construct 2 (A50C A108C) (VHH)
VHH: EVQLVESGGGLVQAGDSLRLSCTASGRTFSRAVMGWFRQAPGKEREFVACISAAPGTAYYAFYADSVRGRFSISADSAKNTVYLQMNSLKPEDTAVYYCAADLKMQVCAYMNQRSVDYWGQGTQVTVSS
notes: Keeps C22/C99
B4: sdAb A3 Construct 3 (V33C M105C) (VHH)
VHH: EVQLVESGGGLVQAGDSLRLSCTASGRTFSRACMGWFRQAPGKEREFVAAISAAPGTAYYAFYADSVRGRFSISADSAKNTVYLQMNSLKPEDTAVYYCAADLKCQVAAYMNQRSVDYWGQGTQVTVSS
notes: Keeps C22/C99
B5: sdAb A3 Construct 1 (A49C I73C) (VHH)
VHH: EVQLVESGGGLVQAGDSLRLSCTASGRTFSRAVMGWFRQAPGKEREFVCAISAAPGTAYYAFYADSVRGRFSCSADSAKNTVYLQMNSLKPEDTAVYYCAADLKMQVAAYMNQRSVDYWGQGTQVTVSS
notes: Keeps C22/C99

What follows are binders tested against T1, Staphylococcal enterotoxin B (Staphylococcus aureus, strain , UniProt P01552) (assay: SPR). Conditions: both partners purified.
T1 construct: source: bought: Toxin technologies
T1 sequence (P01552 28-266): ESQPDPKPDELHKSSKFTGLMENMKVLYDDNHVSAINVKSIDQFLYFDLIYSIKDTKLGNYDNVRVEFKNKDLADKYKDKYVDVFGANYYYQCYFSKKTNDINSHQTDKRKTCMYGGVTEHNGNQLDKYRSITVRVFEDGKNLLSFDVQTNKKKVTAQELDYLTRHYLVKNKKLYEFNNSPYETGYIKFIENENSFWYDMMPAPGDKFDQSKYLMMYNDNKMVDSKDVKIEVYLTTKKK
In the case of B1, the Kd is reported as 230 pM. With B2 the Kd was 60 pM. With B3 the Kd was 60 pM. For B4, the Kd was 210 pM. Work on B5 yielded a Kd of 660 pM.
